Results reported in patent publication US20170081378A1 (INDIANA UNIVERSITY RESEARCH AND TECHNOLOGY, published 2017).
Changes are numbered by the printed parent chain. Where no end group is shown, it is not given here.

T1: fLL-37 (LL-37 with 5' carboxyfluorescein coupled to the N-terminus) (human, 5' carboxyfluorescein coupled to the N-terminus)
T1 construct: Custom synthesized labelled peptide (AnaSpec), used at 0.1 uM in the fluorescence polarization assay; also called fluorescein-labeled LL-37
T1 peptide: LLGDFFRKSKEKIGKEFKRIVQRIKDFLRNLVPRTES

B1: LL-37 (peptide)
peptide: T1 peptide
notes: Unlabelled synthetic 37-residue peptide; also called WT LL-37; native LL-37
B2: Peptide A (peptide)
peptide: T1 peptide with N30K, R34Q, T35P, S37Q
notes: LL-37 with the C-terminal four residues replaced with those from mCRAMP
B3: LL-29 (peptide)
peptide: LLGDFFRKSKEKIGKEFKRIVQRIKDFLR
notes: N-terminal 29 residues of LL-37 (lacks the C-terminal 8 residues)

Key:
[1] = target: fLL-37 (LL-37 with 5' carboxyfluorescein coupled to the N-terminus) (human); assay: fluorescence polarization, fLL-37 0.1 uM, peptide titrated 1-1000 nM, phosphate buffer pH 7.0
fLL-37 (LL-37 with 5' …) [2] = target: T1, fLL-37 (LL-37 with 5' …); assay: as above
fLL-37 (LL-37 with 5' …) [3] = target: T1, fLL-37 (LL-37 with 5' …); assay: fluorescence polarization (FIG. 11)
fLL-37 (LL-37 with 5' …) [4] = target: T1, fLL-37 (LL-37 with 5' …); assay: FRET between fLL-37 and rLL-37 (1:1) in endosomes of BEAS-2B cells, confocal microscopy
Experimental: FIG. 3. Oligomerization of LL-37 depends upon pH. A) LL-37 forms particles that are micrometers in hydrodynamic radii at neutral pH and the particles dissociate when the pH is decreased. All assays were performed with LL-37 at a concentration of 1 ᵢlM in phosphate buffer. […] C) LL-37 particles will dissociate in the presence of salt. The hydrodynamic radius of ˜1 μM LL-37 was determined in a pH 7.4 phosphate buffer adjusted to contain the concentration of NaCl indicated. D) fLL37 and rLL-37 colocalize in endosomes of BEAS-2B cells. fLL-37, rLL-37, and poly(I:C) were added to BEAS-2B cells that were either mock-treated or treated with ammonium chloride and imaged 60 min later by excitation at 488 nm or at 561 nm. The micrograph images were then merged to show the co-localization of the two fluorescent peptides. E) Co-localization of fLL-37 and rLL-37 in BEAS-2B cells was quantified in the absence or presence of endosomal acidification inhibitors. To detect both peptides, the cells were excited with 488 and 561 nm laser. To determine FRET between the two peptides, the cells were excited at only 488 nm laser, which activates fluorescence of fLL-37 and the emissions for both fluorescein and rhodamine were determined. The data shown were quantified from 20 independent cells from three independently prepared samples. The p values were calculated by using the Student t-test. […]

| Binder | fold change in the fluorescence anisotropy values of f-LL-37 between 1.0 nM and 1000 nM of added peptide (fLL-37 (LL-37 with 5' …) [2]) [fold] | further results |
| --- | --- | --- |
| SKEKIGKEFKRIVQRIKDFLR [LL9-29] |  | fold change in the fluorescence anisotropy values of f-LL-37 between 1.0 nM and 1000 nM of added peptide [1]: 2.6 fold |
| GLLRKGGEKIGEKLKKIGQKIKNFFQKLVPQPEQ (also called mouse peptide) [mCRAMP (murine ortholog of LL-37)] | 2.6 |  |
| SKEKIGKEFKRIVQRIKDFLRNLVPRTES [LL8-37] |  | binding result (fLL-37 (LL-37 with 5' …) [3]): binds |
| LLGDFFRKSKEKIGKEFKRIVQRIKDFLRNLVPRTES (also: rhodamine label, position not given here) [rhodamine-labeled LL-37 (rLL-37)] |  | binding result (fLL-37 (LL-37 with 5' …) [4]): binds |
| B1 | 6 |  |
| B2 | 5 |  |
| B3 | 6.2 |  |
